Test results reported in patent US20220226473A1, “Nucleic acid nanocarrier drug and preparation method thereof, pharmaceutical composition and application thereof” (BAI YAO ZHI DA (BEIJING) NANOBIO TECHNOLOGY CO., LTD., priority 2018, published 2022).
Numbering of substitutions follows the chain as printed. “And” between values parts separate entries of the source, which are not always exact repeats. Identical values can stand only once. Oligonucleotides are written 5' to 3', each unit as a sugar letter and its base; * is a phosphorothioate linkage, no mark a phosphodiester; rarer units and linkages stand in square brackets, end groups in braces. Plain capitals give the bases only. d = 2'-deoxy (DNA)

B1: R-8: conventional-sequence RNA nanoparticle with extension fragments, strands SEQ ID NO: 76-78, C/U 2′F modified (nucleic acid)
chain 1: CGCGCGCCCAGGAGCGUUGGCGGGCGGCG
chain 2: CGCCGCCCGCCUUCGCCGCCAGCCGCC
chain 3: GGCGGCAGGCGGCCAUAGCCCUGGGCGCGCG
modifications: 2'-fluoro at CU, RNA at AG, backbone not given here; three-strand RNA nanoparticle used as drug carrier
B2: R-11: conventional-sequence RNA nanoparticle, strands SEQ ID NO: 85-87, C/U 2′F modified (nucleic acid)
chain 1: CGCGCGCCCAGGAGCGUUGGCCCGCGGCG
chain 2: CGCCGCGGGCCUUCGGGGCCAGCCGCC
chain 3: B1 chain 3 with G11C, G12C
modifications: 2'-fluoro at CU, RNA at AG, backbone not given here; three-strand RNA nanoparticle used as drug carrier
B3: R-10: conventional-sequence RNA nanoparticle, strands SEQ ID NO: 82-84, C/U 2′F modified (nucleic acid)
chain 1: CGCGCGCCCACGAGCGUUGCGGGGCGGCG
chain 2: CGCCGCCCCGCUUCGCCGCCAGCCGCC
chain 3: B1 chain 3 with C21G
modifications: 2'-fluoro at CU, RNA at AG, backbone not given here; three-strand RNA nanoparticle used as drug carrier
B4: R-9: conventional-sequence RNA nanoparticle, strands SEQ ID NO: 79-81, C/U 2′F modified (nucleic acid)
chain 1: CGCGCGCCCAGCAGCGUUCGCGGGCGGCG
chain 2: CGCCGCCCGCGUUCGCCGCCAGCCGCC
chain 3: B1 chain 3 with C20G
modifications: 2'-fluoro at CU, RNA at AG, backbone not given here; three-strand RNA nanoparticle used as drug carrier
B5: D-7: conventional-sequence DNA nanoparticle without target head, strands SEQ ID NO: 117-119 (nucleic acid)
chain 1: dC*dG*dC*dGdCdGdCdCdCdAdCdGdAdGdCdGdTdTdGdCdGdGdGdCdGdC*dC*dG*dC
chain 2: dG*dC*dG*dGdCdGdCdCdCdGdCdTdTdCdGdGdCdGdGdCdAdGdGdC*dG*dG*dC
chain 3: dG*dC*dC*dGdCdCdAdGdCdCdGdCdCdCdAdTdAdGdCdCdGdTdGdGdGdCdGdC*dG*dC*dG
modifications: three-strand DNA nanoparticle
B6: R-14: conventional-sequence RNA nanoparticle carrying survivin siRNA, strands SEQ ID NO: 94-96, C/U 2′F modified (nucleic acid)
chain 1: CGCGCGCGAGCGUUGCAAUGACAGAUAAGGAACCUGCUTT
chain 2: GGCAGGUUCCUUAUCUGUCAAAGCUUCGGCGGCAGC
chain 3: GCAGCCGCCCAUAGCCGCGCGCG
modifications: chain 1: DNA at T, 2'-fluoro at CU, RNA at AG, backbone not given here; chain 2: 2'-fluoro at CU, RNA at AG, backbone not given here; chain 3: 2'-fluoro at CU, RNA at AG, backbone not given here; three-strand RNA nanoparticle carrying a survivin siRNA fragment
B7: R-12: conventional-sequence RNA nanoparticle, strands SEQ ID NO: 88-90, C/U 2′F modified (nucleic acid)
chain 1: CGCGCGCCCAGCAGCGUUCGCCCCGCCGC
chain 2: GCGGCGGGGCGUUCGGCGGCAGGCGGC
chain 3: GCCGCCAGCCGCCCAUAGCGCUGGGCGCGCG
modifications: 2'-fluoro at CU, RNA at AG, backbone not given here; three-strand RNA nanoparticle used as drug carrier
B8: D-6: conventional-sequence DNA nanoparticle without target head, strands SEQ ID NO: 114-116 (nucleic acid)
chain 1: dC*dG*dC*dGdCdGdCdCdCdAdGdCdAdGdCdGdTdTdCdGdGdGdGdCdGdC*dC*dG*dC
chain 2: dG*dC*dG*dGdCdGdCdCdCdCdGdTdTdCdGdGdCdCdGdGdCdAdGdGdC*dG*dG*dC
chain 3: dG*dC*dC*dGdCdCdAdGdCdCdGdGdCdCdCdAdTdAdGdCdGdCdTdGdGdGdCdGdC*dG*dC*dG
modifications: three-strand DNA nanoparticle
B9: D-2: conventional-sequence DNA nanoparticle with EGFRapt target head, strands SEQ ID NO: 102-104 (nucleic acid)
chain 1: dC*dG*dC*dGdCdGdCdCdCdAdGdCdAdGdCdGdTdTdCdGdCdGdGdGdCdGdGdCdGdGdCdCdTdTdAdGdTdAdAdCdGdTdGdCdTdTdTdGdAdTdGdTdCdGdAdTdTdCdGdAdCdAdGdGdA*dG*dG*dC
chain 2: dC*dG*dC*dCdGdCdCdCdGdCdGdTdTdCdGdCdCdGdCdCdAdGdCdC*dG*dC*dC
chain 3: dG*dG*dC*dGdGdCdAdGdGdCdGdGdCdCdAdTdAdGdCdGdCdTdGdGdGdCdGdC*dG*dC*dG
modifications: three-strand DNA nanoparticle with an EGFR aptamer part
B10: R-13: conventional-sequence RNA nanoparticle, strands SEQ ID NO: 91-93, C/U 2′F modified (nucleic acid)
chain 1: CGCGCGCCCAGCAGCGUUCGGGGCGCCGC
chain 2: GCGGCGCCCCGUUCGGCCGGCAGGCGGC
chain 3: GCCGCCAGCCGGCCCAUAGCGCUGGGCGCGCG
modifications: 2'-fluoro at CU, RNA at AG, backbone not given here; Strands self-assemble into an RNA nanoparticle carrier

Tests used:
[1] = Electric potential (zeta potential) measurement of self-assembly products; type: physicochemical; settings: result over 3 detections, sample in ultrapure water
Protocol: Measurement method: preparing a potential sample (the self-assembly product is dissolved in ultrapure water) and putting into a sample pool, opening a sample pool cover of an instrument, and placing the instrument;
opening software, clicking a menu MeasUre€ManUal, so a manual measurement parameter setting dialog box appears;
setting a software detection parameter;
and then clicking Ok to complete the settings, after a measurement dialog box appears, clicking start to start.
and then clicking Ok to complete the settings, after a measurement dialog box appears, clicking Start to start.
Measurement method: preparing a potential sample (the self-assembly product is dissolved in ultrapure water) and putting into a sample pool, opening a sample pool cover of an instrument, and placing the instrument:
Measurement result potential detection results of the 7 groups of the extension fragment deformation+core short-sequence RNA nanoparticles at 25 DEG C. are as follows:
setting a software detection parameter; and then
clicking Ok to complete the settings, after a measurement dialog box appears, clicking Start to start.
Measurement result potential detection results of the 7 groups of the extension fragment deformation+core short-sequence DNA nanoparticles at 25 DEG C. are as follows: […]

[2] = Particle size measurement (DLS hydrodynamic size); type: physicochemical; settings: DLS
Excerpt: 1. Preparing a potential sample (conventional-sequence DNA self-assembly product D-7) and putting into a sample pool, opening a sample pool cover of an instrument, and placing the instrument;
2. opening software, and clicking a menu, so a manual measurement parameter setting dialog box appears;
3. setting a software detection parameter; and then
4. clicking Ok to complete the settings, when a measurement dialog box appears, clicking Start to start, a DLS measurement value result of a hydrodynamic size of the self-assembly product D-7 is shown below in Table 40: […]

Row | Molecule | Potential ZP, Experiment result [1] | Particle size Z-Ave, Experiment result ([2]; result over 3 detections) | Particle size Z-Ave ([2]; single detection (detection times 1-3))
1 | B1 | −17.43 mV (±1.33 mV) | – | –
2 | B2 | −29.13 mV (±3.13 mV) | – | –
3 | B3 | −10.87 mV (±0.47 mV) | – | –
4 | B4 | −18.20 mV (±1.3 mV) | – | –
5 | B5 | −32.20 mV (±0.0.5 mV) | 12.33 d.nm (±1.57 d.nm) | 10.76 nm·days and 13.9 nm·days and 10.36 nm·days
6 | B6 | −23.53 mV. ± 2.33 mV | – | –
7 | B7 | −10.86 mV (±3.27 mV) | – | –
8 | B8 | −31.90 mV (±0.2 mV) | – | –
9 | B9 | −36.47 mV (±0.67 mV) | – | –
10 | B10 | −15.45 mV (±5.81 mV) | – | –
